{"source": "patent US6200577A", "about": "“Anti-herpesviral agents and assays therefor” (priority 1996, dated 2001)", "key": {"[1]": {"target": "T1, VP16/full-length VP22 interaction (Human herpesvirus 1, UniProt P06492)", "T1 construct": "Plasmid pETVP16 was used to express full-length VP16 under the control of the T7 RNA polymerase promoter; made in house; host or cells: VP16: E. coli BL21(DE3); VP22: L-particles of recombinant virus vUL49ep grown in BHK cells", "T1 sequence (P06492 whole entry)": "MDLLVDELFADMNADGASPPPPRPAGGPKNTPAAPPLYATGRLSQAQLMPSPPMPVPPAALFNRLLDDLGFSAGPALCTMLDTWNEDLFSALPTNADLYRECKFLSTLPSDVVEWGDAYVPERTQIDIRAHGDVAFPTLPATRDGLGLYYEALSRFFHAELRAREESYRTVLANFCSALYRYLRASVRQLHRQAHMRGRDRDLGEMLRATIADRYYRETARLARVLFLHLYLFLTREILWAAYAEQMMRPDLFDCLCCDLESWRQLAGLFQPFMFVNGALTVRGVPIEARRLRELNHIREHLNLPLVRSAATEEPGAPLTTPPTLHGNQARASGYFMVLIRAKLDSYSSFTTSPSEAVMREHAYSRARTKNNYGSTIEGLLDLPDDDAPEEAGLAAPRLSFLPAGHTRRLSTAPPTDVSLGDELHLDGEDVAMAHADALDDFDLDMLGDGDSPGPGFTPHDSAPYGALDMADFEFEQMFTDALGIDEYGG", "assay": "Far Western analysis of peptides blocking VP16 binding to full-length VP22 (vUL49ep L-particle extract)", "set-up": "species or system HSV-1", "details": "strips pre-incubated with 1 mg peptide, FIG. 8", "method": "FIG. 8 Blocking of the interaction between VP16 and full length VP22 by pure peptides D and E. A vUL49ep L-particle extract was run on a 10% polyacrylamide gel and the proteins transferred to a nitrocellulose membrane. The blot was cut into strips, with each strip containing the equivalent of approximately 3×10^9 L-particles. Strips were pre-incubated with 1 mg of each of the following peptides: lane 2, no peptide; lane 3, peptide C; lane 4, peptide D; lane 5, peptide E. 2 μg of pure VP16 was then added to each incubation and bound VP16 was detected by LP1 antibody. Two strips were incubated with either LPl (lane 1) or 9220 antibody (lane 6), each at a dilution of 1:1000. The apparent molecular weights of VP16 (65 KDa) and tagged VP22 (40 KDa) are shown.\nFollowing electrophoresis, proteins were electrotransferred to either Hybond or ProBlott (Applied Biosystems) membrane and the membrane was incubated in renaturation buffer (50 mM Tris-HCl, pH 8.0, 150 mM NaCl, 10% glycerol, 1 mM DTT) at 4° C. for 5-6 hours.\nFor membranes probed with either VP16 or VP22trunc, blocking was performed overnight as described for Western blot analysis. Probing with epitope-tagged VP22 or VP16 was performed in 20 mM Tris-HCl, pH 8.0, 250 mM NaCl for 1.5 hours at ambient temperature. Excess probe was removed by washing 4 times (10 minutes per wash) in 20 mM Tris-HCl, pH8.0, 250 mM NaCl, followed by incubation with the appropriate antibody at a dilution of 1:1000 in TTBS/1% gelatin for 1.5-2 hours. Bound antibody was detected as described for Western blot analysis.\nThe results presented thus far have established that peptides D and E block the interaction between VP16 and VP22trunc. The inhibitory effect of the peptides was further tested to examine whether they were capable of blocking the interaction of VP16 with full-length VP22."}, "[2]": {"target": "T2, VP16 (Human herpesvirus 1, UniProt P06492)", "T2 construct": "Plasmid pETVP16 was used to express full-length VP16 under the control of the T7 RNA polymerase promoter; made in house; host or cells: E. coli BL21(DE3)", "T2 sequence (P06492 whole entry)": "as above", "assay": "ELISA of direct binding of VP16 to plate-coated peptides", "set-up": "species or system HSV-1", "details": "wells coated with peptide up to 500 μg/ml; VP16 1.6 μg/ml; FIG. 10", "method": "FIG. 10 Binding of VP16 to peptides. Microtitre plates were coated with 5-fold dilutions of peptides ranging from 500 μg/ml to 1 μg/ml and blocked with PBS/10% NCS. VP16 was then added to a final concentration of 1.6 μg/ml and detected with LP1. The legend for the peptides added is shown to the right of the graph.\nDilutions of proteins in PBS were coated overnight onto flat bottomed micro-titre plates (Dynatech) at 37° C. and then blocked with either 2% BSA or 10% new-born calf serum (NCS) in PBS for 1 hour at 37° C. Specific binding of a second protein to the plate-bound protein was performed for 1.5-2 hours at ambient temperature. a Excess secondary protein was removed by washing four times with PBS, 0.3% Tween 20. Bound protein was detected by incubation for 1.5-2 hours with LP1 antibody in PBS, 1% gelatin or PBS, 2% NCS. The bound antibody was detected by incubation for 1 hour at ambient temperature with anti-mouse antibody conjugated to HRP (1:500) and visualised with Smg/ml enzyme substrate 2,2'-azino-bis(3-ethylbenzthiazoline-6-sulphonic acid) (ABTS; Sigma) in citrate-phosphate buffer containing 6 μl hydrogen peroxide in a total volume of 20 ml. Optical densities were measured on a Titertek Multiscan PLUS instrument.\nTo examine whether VP16 could bind directly to the peptides, wells were coated with each peptide (A-J) at a range of concentrations from […] to 500 μg/ml and the plate was then blocked with […]. […] Nonetheless, the data for peptides D and E implicate direct binding of these peptides to VP16 as the mechanism for inhibiting its interaction with VP22. Peptide H also was active in experiments which prevented gB binding to VP22trunc [Section 4 (iii)] and thus also forms an aspect of the invention."}, "[3]": {"assay": "Solubility of synthetic peptides in buffer", "assay_type": "physicochemical", "details": "for Solubility following purification: HPLC-purified peptides; for Solubility: peptides dissolved in 20 mM Tris-HCl, pH 8.0, 250 mM NaCl, unpurified preparations", "method": "Synthesis and Purification of Oligopeptides. Peptides were synthesised by continuous flow Fmoc chemistry (Atherton and Sheppard, 1989; McLean et al., 1991) and, where stated in the text, were purified by preparative reverse-phase HPLC (Owsianka et al., 1993). The Mr values of peptides were determined by fast atom bombardment mass spectrometry (M-Scan) and corresponded to the predicted values. Peptides were dissolved in 20 mM Tris-HCl, pH 8.0, 250 mM NaCl and centrifuged at 11,500 g for 1 minute prior to use. […] Precipitates were removed by centrifugation before use."}}, "note": "“Also recorded” adds a separate entry of the source.", "data": [{"sequence": "TPRVAGFNKRVFCAAVGRLA [Peptide D]", "values": [{"measurement": "Blocking of VP16 binding to full-length VP22 (Far Western)", "setting": "[1]", "result": "completely blocks binding of VP16 to VP22"}, {"measurement": "Direct binding of VP16 to plate-coated peptide (ELISA)", "setting": "[2]", "result": "binding was found with higher concentrations"}, {"measurement": "Solubility following purification", "setting": "[3]", "result": "not 100% soluble"}, {"measurement": "Solubility", "setting": "[3]", "result": "partly; also recorded: partially insoluble"}]}, {"sequence": "CAAVGRLAAMHARMAAVQLW [Peptide E]", "values": [{"measurement": "Blocking of VP16 binding to full-length VP22 (Far Western)", "setting": "[1]", "result": "completely blocks binding of VP16 to VP22"}, {"measurement": "Direct binding of VP16 to plate-coated peptide (ELISA)", "setting": "[2]", "result": "binding was found with higher concentrations"}, {"measurement": "Solubility following purification", "setting": "[3]", "result": "not 100% soluble"}, {"measurement": "Solubility", "setting": "[3]", "result": "partly; also recorded: partially insoluble"}]}, {"sequence": "FSTAPPNPDAPWTPRVAGFN [Peptide C]", "values": [{"measurement": "Blocking of VP16 binding to full-length VP22 (Far Western)", "setting": "[1]", "result": "does not hinder the interaction"}, {"measurement": "Direct binding of VP16 to plate-coated peptide (ELISA)", "setting": "[2]", "result": "binding did not occur"}, {"measurement": "Solubility", "setting": "[3]", "result": "soluble"}]}]}
